Results taken from the supplement of paper PMC12764529.
± gives the half width of the 95% confidence interval.

What was measured:
[1] = folding stability dG unfold from chymotrypsin proteolysis; higher = more stable
Experimental: (§1)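 Folding stability of de novo designed mini-proteins (<80 aa, no Cys; designed by TrROS, TrMRF, ProteinMPNN and the joint model) was measured by cDNA display proteolysis with trypsin and chymotrypsin. Each protease was used at 11 concentrations in a threefold dilution series plus a no-protease condition. K50 was inferred by Bayesian fitting of sequencing counts, and dG unfold was derived against a sequence-predicted unfolded-state K50 (Tsuboyama et al. method). Sequences shown include variable-length N-terminal GS-type padding (SAGGSAGG...) inside a display construct carrying a PA tag. Rows were kept only if the AF2 dimer inter-PAE was >15, to exclude likely homo-oligomers.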

[2] = folding stability dG unfold (combined trypsin and chymotrypsin); higher = more stable
Experimental: as §1

| Sequence | folding stability dG unfold [1] [kcal/mol] | folding stability dG unfold [2] [kcal/mol] |
| --- | --- | --- |
| SAGESTLELTETSFPDGTTARVTTTRYPGLVRREATVTLPDGTVERLSAEVTLDEDEEVVTTSRSPLPSAGG [r19_385_JUSTAS] | -0.247 ± 0.13 | -0.666 ± 0.45 |
| SAGMTITIEDLDNGEKVTIEKNPEDPNMVQIEYPNGPEQTFPADEIAEELGLPPSLLQNGIRIKKIKISSAG [r5_156_TrROS] | -0.603 ± 0.23 | < -1 |
| SAGGSASMKTTTVTLPLDPAQLAEAIAALREAVAPDEAAEVTFVHPHAPTSLTVTISRSDVTLNAASAGGSA [r15_257_JUSTAS] | 0.706 ± 0.074 | -0.17 ± 0.11 |
| SAGGSAGGSSGLTLLEETEISPGPPVPAIPATLPVKVDGKTVPLPITLTPEELAALRAELLRRSAGGSAGGS [r20_148_JUSTAS] | 0.893 ± 0.088 | 0.364 ± 0.093 |
| SAGGSAGGSAGGMSSTVTVTTTPVDPNVGLYRVTTTTYYVDPDGPAHPGTSVSLVNRALSSAGGSAGGSAGG [r11_51_JUSTAS] | -1.34 ± 0.83 | < -1 |
| SAGGMTITLPKNMTKEELEALAKKLEEETGLKVTIEYNEETNEVTITVEGLSEEEQERIKKLLEEAASAGGS [r16_227_TrROS_Hall] | 3.49 ± 0.34 | > 6 |
| SAGGMAEELAKLLKELFPDEEVEVEVKVEEKEVNGKKYLTITVTVRNKKTGKKIKEIKLVIELPEEESAGGS [r8_207_TrROS_Hall] | 4.23 ± 0.32 | > 6 |
| SAGGPEAKIEIYKLPDGYYFISVETPDNGKPMSIPIPPGEEKKIKIEPGAPIRDISIYPVKPGDPEAFSAGG [r13_122_TrROS] | 0.202 ± 0.33 | -0.158 ± 0.3 |
| SAGGSAGGSMTITVETTSKDPAVAEKELTEKVKKEYPPSVKVEIDPVSSPDGVARVRATIIRESAGGSAGGS [r20_122_JUSTAS] | 0.529 ± 0.09 | 0.291 ± 0.19 |
| SAGGMTVTIESVERLPGGVEVRRMVIETLDPNNPTPSTVERELVTEFTPSVDPEGRPGRLARREEVLGSAGG [r13_612_JUSTAS] | 0.0887 ± 0.12 | -0.237 ± 0.15 |
| SAGGPIVTSEVVETRPLPDGSTLVTVKTTKLLPLPVETTAPDGTVSPVPPGTPPVTVTETHLVVLEPSAGGS [r16_693_JUSTAS] | 0.684 ± 0.055 | 0.0694 ± 0.22 |
| SAGGSAMIEVRTVAGEPVEVTPIPEDEVLVARTPGGRKAPFLLGEDVLRELVVEPDAPPDLFIVPGSAGGSA [r15_709_TrMRF] | -0.141 ± 0.093 | -0.617 ± 0.13 |
| SAGGSAGGSMTPVHVYVPPSLSPEEARARVRAELRAALPAAEADVPLEDVEVVLRPLPPDVPLSAGGSAGGS [r12_384_JUSTAS] | 0.303 ± 0.42 | < -1 |
| SAGGSAGGSAGKKKIHVHQYPDGNYHIRVPNGKSYHFPPEDADELVEELGIDEVEIHPMDSAGGSAGGSAGG [r11_312_TrROS] | 0.0552 ± 0.089 | -0.407 ± 0.16 |
| SAGKIVIEGEPEKLPEAIEEALKNNPDLKKVTIYYGDKSEEFEKDEEVKFFKPKKNKDGKPFMVLVVEDSAG [r5_130_TrMRF] | 0.756 ± 0.23 | -0.00581 ± 0.37 |
| SAGGSAGGSRWRVSFEGPNGGTQEHDIPVPPGEPVDLDEILDEFKEAHPGGPPRPIKIERPDPSAGGSAGGS [r12_262_TrROS] | 0.232 ± 0.28 | -0.651 ± 0.33 |
| SAGGSAGGSAGNPKYVMVPLKFPDGNPVNIMVSDDEIHIYDMGPNKWRWIPADDLPPEAFSAGGSAGGSAGG [r11_155_TrROS] | 0.666 ± 0.15 | 0.215 ± 0.15 |
| SAGGSAGGSAGGGSMTKIGNGYLRYTLPGDTVVIYDPSTGTTQTLPVSNPVPVELPPNIPSAGGSAGGSAGG [r7_299_JUSTAS] | 0.671 ± 0.031 | 0.208 ± 0.057 |
| SAGGSAGGSAGGPKVTVFDDHPKKVVLVEFPDKPILAVYDPVTKEVVLLNPDTDELLPLSAGGSAGGSAGGS [r10_434_TrMRF] | -0.551 ± 0.22 | -0.889 ± 0.47 |
| SAGGRIKIDIDPHPNEPGQPVMIKIKHPNGEREIPIPPNQSPEELKEAADDLAEENGFPIDDVEIHPSAGGS [r16_753_TrROS] | 0.661 ± 0.059 | 0.154 ± 0.16 |
